Assay [1] concerns the target myc-tagged PSF (full-length) (UniProt Q8VIJ6). Kind of assay: co-IP.
Assay [2] concerns the target T1, myc-tagged PSF (full-length) (UniProt Q8VIJ6 1-699).
T1 sequence: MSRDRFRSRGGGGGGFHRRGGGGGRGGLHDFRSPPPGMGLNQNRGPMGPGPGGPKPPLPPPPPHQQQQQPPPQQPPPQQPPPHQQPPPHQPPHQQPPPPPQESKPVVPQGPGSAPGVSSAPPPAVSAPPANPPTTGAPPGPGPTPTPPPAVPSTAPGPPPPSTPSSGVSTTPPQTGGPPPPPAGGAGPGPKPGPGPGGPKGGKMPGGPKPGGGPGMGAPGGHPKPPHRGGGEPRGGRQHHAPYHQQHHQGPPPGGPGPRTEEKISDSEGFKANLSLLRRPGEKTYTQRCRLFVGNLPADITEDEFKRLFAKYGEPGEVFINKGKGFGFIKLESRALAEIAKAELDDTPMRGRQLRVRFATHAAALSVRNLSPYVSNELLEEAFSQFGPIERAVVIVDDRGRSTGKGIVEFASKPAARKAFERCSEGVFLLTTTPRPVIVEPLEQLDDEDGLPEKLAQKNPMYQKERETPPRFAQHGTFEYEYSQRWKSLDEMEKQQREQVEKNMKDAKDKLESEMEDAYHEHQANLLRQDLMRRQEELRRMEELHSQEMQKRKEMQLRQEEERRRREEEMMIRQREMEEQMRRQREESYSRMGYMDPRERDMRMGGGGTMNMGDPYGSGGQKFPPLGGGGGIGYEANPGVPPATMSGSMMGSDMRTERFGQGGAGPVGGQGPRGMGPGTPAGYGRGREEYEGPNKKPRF
Kind of assay: co-IP.

In the case of “myc-tagged Fox-3-S (from UniProt Q8BIF2-5 1-327) (natural protein)”, in assay [1], the fold more efficiently pulled down by PSF than Fox-1 came out at 7 fold and the fold more efficiently pulled down by PSF than Fox-2 was found to be 2.7 fold.

B1: myc–Fox-3-L (natural protein)
chain: MAQPYPPAQYPPPPQNGIPAEYAPPPPHPTQDYSGQTPVPPEHGMTLYTPAQTHPEQPGTEASTQPIAGTQTVPQADEAAQTDNQQLHPSDPTEKQQPKRLHVSNIPFRFRDPDLRQMFGQFGKILDVEIIFNERGSKGFGFVTFETSSDADRAREKLNGTIVEGRKIEVNNATARVMTNKKPGNPYANGWKLNPVVGTVYGPEFYAVTSFPYPTTGTAVAYRGAHLRGRGRAVYNTFRAAPPPPPIPTYGAALEQTLVKMPVPWAGLAPCPLPPQQTPEPAYPTSPAFPPLSCPFASRVVYQDGFYGAEIYGGYAAYRYAQPAAATAAAYSDSYGRVYAAADPYHHTIGPTATYSIGTMASLCRGGYSRFTPY
Turning to B1, in assay [2], the “fold more efficiently pulled down by PSF than Fox-1” value stood at 7 fold and the “fold more efficiently pulled down by PSF than Fox-2” value came to 2.7 fold.
